Measurements reported in the supplement of paper PMC9112550, “Optimization of the antimicrobial peptide Bac7 by deep mutational scanning” (BMC Biology, 2022).
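Further: peptides expressed intracellularly from a pBAD plasmid library in pooled LB shake-flask culture, induced with 0.3% L-arabinose, DNA abundance read by NGS, three biological replicates, DESeq2 with apeglm shrinkage.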

These sequences were tested on Escherichia coli TOP10 (assay: shrunken log2 fold change of peptide-encoding DNA abundance (4.5 h post-induction vs induction); higher = less antimicrobial activity (less host growth inhibition)). Details: time post-induction: 4.5 h; library: site-saturation at positions 5, 18, 19, 20.
With RRIRSRPPRLPRPRPRPITHPRP the “shrunken log2 fold change” value was -0.419. For RRIRSRPPRLPRPRPRPITPPRP, the “shrunken log2 fold change” value was 0.0356. For RRIRSRPPRLPRPRPRPITTPRP, the “shrunken log2 fold change” value was -0.578. In the case of RRIRSRPPRLPRPRPRPIVFPRP, the “shrunken log2 fold change” value is reported as -0.0485. RRIRSRPPRLPRPRPRPIVSPRP was tested, and the “shrunken log2 fold change” value was 0.0431. With RRIRSRPPRLPRPRPRPIWKPRP the “shrunken log2 fold change” value was 0.346. In the case of RRIRSRPPRLPRPRPRPIWLPRP, the “shrunken log2 fold change” value is reported as 0.222. With RRIRSRPPRLPRPRPRPIWPPRP the “shrunken log2 fold change” value was 0.0426. In the case of RRIRSRPPRLPRPRPRPIYCPRP, the “shrunken log2 fold change” value is reported as -0.876. RRIRSRPPRLPRPRPRPIYFPRP was tested, and the “shrunken log2 fold change” value was -0.397. In the case of RRIRSRPPRLPRPRPRPKDHPRP, the “shrunken log2 fold change” value is reported as -0.131. In the case of RRIRSRPPRLPRPRPRPKDSPRP, the “shrunken log2 fold change” value is reported as 0.1. In the case of RRIRSRPPRLPRPRPRPKGLPRP, the “shrunken log2 fold change” value is reported as -0.0223. In the case of RRIRSRPPRLPRPRPRPKLAPRP, the “shrunken log2 fold change” value is reported as 0.245. With RRIRSRPPRLPRPRPRPKMFPRP the “shrunken log2 fold change” value was -0.00685. In the case of RRIRSRPPRLPRPRPRPKMKPRP, the “shrunken log2 fold change” value is reported as 0.912. In the case of RRIRSRPPRLPRPRPRPKNQPRP, the “shrunken log2 fold change” value is reported as -0.177. With RRIRSRPPRLPRPRPRPKPQPRP the “shrunken log2 fold change” value was 0.524. For RRIRSRPPRLPRPRPRPKPRPRP, the “shrunken log2 fold change” value was 0.594. In the case of RRIRSRPPRLPRPRPRPKQIPRP, the “shrunken log2 fold change” value is reported as 0.0712. With RRIRSRPPRLPRPRPRPKQSPRP the “shrunken log2 fold change” value was 0.328. RRIRSRPPRLPRPRPRPKRIPRP was tested, and the “shrunken log2 fold change” value was -0.275. In the case of RRIRSRPPRLPRPRPRPKSAPRP, the “shrunken log2 fold change” value is reported as 0.403. RRIRSRPPRLPRPRPRPKSKPRP was tested, and the “shrunken log2 fold change” value was -0.0869. For RRIRSRPPRLPRPRPRPKSVPRP, the “shrunken log2 fold change” value was -0.0236. In the case of RRIRSRPPRLPRPRPRPKWGPRP, the “shrunken log2 fold change” value is reported as 0.228. With RRIRSRPPRLPRPRPRPKWLPRP the “shrunken log2 fold change” value was 0.104. RRIRSRPPRLPRPRPRPLACPRP was tested, and the “shrunken log2 fold change” value was 0.268. For RRIRSRPPRLPRPRPRPLAIPRP, the “shrunken log2 fold change” value was -0.0883. With RRIRSRPPRLPRPRPRPLARPRP the “shrunken log2 fold change” value was 0.0314. In the case of RRIRSRPPRLPRPRPRPLCHPRP, the “shrunken log2 fold change” value is reported as -0.157. For RRIRSRPPRLPRPRPRPLCRPRP, the “shrunken log2 fold change” value was -0.0794. In the case of RRIRSRPPRLPRPRPRPLEAPRP, the “shrunken log2 fold change” value is reported as 0.177. With RRIRSRPPRLPRPRPRPLEDPRP the “shrunken log2 fold change” value was 0.0492. RRIRSRPPRLPRPRPRPLEWPRP was tested, and the “shrunken log2 fold change” value was 0.14. In the case of RRIRSRPPRLPRPRPRPLFHPRP, the “shrunken log2 fold change” value is reported as -0.63. With RRIRSRPPRLPRPRPRPLGAPRP the “shrunken log2 fold change” value was 0.295. With RRIRSRPPRLPRPRPRPLGTPRP the “shrunken log2 fold change” value was -0.216. In the case of RRIRSRPPRLPRPRPRPLHVPRP, the “shrunken log2 fold change” value is reported as -0.245. RRIRSRPPRLPRPRPRPLIIPRP was tested, and the “shrunken log2 fold change” value was -0.678. For RRIRSRPPRLPRPRPRPLKKPRP, the “shrunken log2 fold change” value was 0.0577. RRIRSRPPRLPRPRPRPLLTPRP was tested, and the “shrunken log2 fold change” value was 0.085. RRIRSRPPRLPRPRPRPLMRPRP was tested, and the “shrunken log2 fold change” value was 0.948. With RRIRSRPPRLPRPRPRPLNCPRP the “shrunken log2 fold change” value was -0.374. RRIRSRPPRLPRPRPRPLNDPRP was tested, and the “shrunken log2 fold change” value was -0.182. RRIRSRPPRLPRPRPRPLNTPRP was tested, and the “shrunken log2 fold change” value was -0.563. With RRIRSRPPRLPRPRPRPLNYPRP the “shrunken log2 fold change” value was -0.166. In the case of RRIRSRPPRLPRPRPRPLPEPRP, the “shrunken log2 fold change” value is reported as 0.278. RRIRSRPPRLPRPRPRPLPLPRP was tested, and the “shrunken log2 fold change” value was -0.0835. With RRIRSRPPRLPRPRPRPLPNPRP the “shrunken log2 fold change” value was -0.215. RRIRSRPPRLPRPRPRPLRAPRP was tested, and the “shrunken log2 fold change” value was 0.858. For RRIRSRPPRLPRPRPRPLRQPRP, the “shrunken log2 fold change” value was 0.364. In the case of RRIRSRPPRLPRPRPRPLRRPRP, the “shrunken log2 fold change” value is reported as 0.404. For RRIRSRPPRLPRPRPRPLSYPRP, the “shrunken log2 fold change” value was -0.464. RRIRSRPPRLPRPRPRPLWNPRP was tested, and the “shrunken log2 fold change” value was -0.25. With RRIRSRPPRLPRPRPRPLYGPRP the “shrunken log2 fold change” value was -0.565. In the case of RRIRSRPPRLPRPRPRPMCDPRP, the “shrunken log2 fold change” value is reported as -0.147. With RRIRSRPPRLPRPRPRPMCWPRP the “shrunken log2 fold change” value was 0.318. RRIRSRPPRLPRPRPRPMEIPRP was tested, and the “shrunken log2 fold change” value was 0.014. For RRIRSRPPRLPRPRPRPMEWPRP, the “shrunken log2 fold change” value was 0.199. In the case of RRIRSRPPRLPRPRPRPMFCPRP, the “shrunken log2 fold change” value is reported as -0.285. RRIRSRPPRLPRPRPRPMFKPRP was tested, and the “shrunken log2 fold change” value was -0.407. RRIRSRPPRLPRPRPRPMIIPRP was tested, and the “shrunken log2 fold change” value was -0.182. With RRIRSRPPRLPRPRPRPMLFPRP the “shrunken log2 fold change” value was -0.196. In the case of RRIRSRPPRLPRPRPRPMLVPRP, the “shrunken log2 fold change” value is reported as -0.0894. With RRIRSRPPRLPRPRPRPMLYPRP the “shrunken log2 fold change” value was 0.0575. RRIRSRPPRLPRPRPRPMMKPRP was tested, and the “shrunken log2 fold change” value was 1.75. RRIRSRPPRLPRPRPRPMMMPRP was tested, and the “shrunken log2 fold change” value was -0.83. With RRIRSRPPRLPRPRPRPMNLPRP the “shrunken log2 fold change” value was 0.048. RRIRSRPPRLPRPRPRPMPHPRP was tested, and the “shrunken log2 fold change” value was 0.00101. For RRIRSRPPRLPRPRPRPMPLPRP, the “shrunken log2 fold change” value was -0.0685. For RRIRSRPPRLPRPRPRPMPWPRP, the “shrunken log2 fold change” value was -0.039. With RRIRSRPPRLPRPRPRPMQSPRP the “shrunken log2 fold change” value was -0.00143. With RRIRSRPPRLPRPRPRPMSGPRP the “shrunken log2 fold change” value was 0.131. For RRIRSRPPRLPRPRPRPMTDPRP, the “shrunken log2 fold change” value was -0.222. With RRIRSRPPRLPRPRPRPMYKPRP the “shrunken log2 fold change” value was -1.13. For RRIRSRPPRLPRPRPRPMYYPRP, the “shrunken log2 fold change” value was -0.468. With RRIRSRPPRLPRPRPRPNCIPRP the “shrunken log2 fold change” value was -0.416. With RRIRSRPPRLPRPRPRPNDDPRP the “shrunken log2 fold change” value was 0.0402. For RRIRSRPPRLPRPRPRPNEPPRP, the “shrunken log2 fold change” value was -0.0883. RRIRSRPPRLPRPRPRPNFNPRP was tested, and the “shrunken log2 fold change” value was -0.298. RRIRSRPPRLPRPRPRPNFSPRP was tested, and the “shrunken log2 fold change” value was -0.112. With RRIRSRPPRLPRPRPRPNGPPRP the “shrunken log2 fold change” value was -0.42. With RRIRSRPPRLPRPRPRPNGQPRP the “shrunken log2 fold change” value was 0.0535. RRIRSRPPRLPRPRPRPNIVPRP was tested, and the “shrunken log2 fold change” value was 0.238. With RRIRSRPPRLPRPRPRPNKQPRP the “shrunken log2 fold change” value was -0.221. With RRIRSRPPRLPRPRPRPNKWPRP the “shrunken log2 fold change” value was -0.0551. For RRIRSRPPRLPRPRPRPNLRPRP, the “shrunken log2 fold change” value was 0.0182. In the case of RRIRSRPPRLPRPRPRPNLWPRP, the “shrunken log2 fold change” value is reported as -0.075. In the case of RRIRSRPPRLPRPRPRPNMGPRP, the “shrunken log2 fold change” value is reported as -0.351. For RRIRSRPPRLPRPRPRPNMHPRP, the “shrunken log2 fold change” value was -0.257. In the case of RRIRSRPPRLPRPRPRPNMKPRP, the “shrunken log2 fold change” value is reported as -0.436. RRIRSRPPRLPRPRPRPNNNPRP was tested, and the “shrunken log2 fold change” value was -0.604. In the case of RRIRSRPPRLPRPRPRPNNPPRP, the “shrunken log2 fold change” value is reported as -0.3. With RRIRSRPPRLPRPRPRPNNSPRP the “shrunken log2 fold change” value was -0.724. RRIRSRPPRLPRPRPRPNPLPRP was tested, and the “shrunken log2 fold change” value was 0.182. For RRIRSRPPRLPRPRPRPNRDPRP, the “shrunken log2 fold change” value was -0.233. RRIRSRPPRLPRPRPRPNRLPRP was tested, and the “shrunken log2 fold change” value was -0.205. RRIRSRPPRLPRPRPRPNSKPRP was tested, and the “shrunken log2 fold change” value was -0.382. RRIRSRPPRLPRPRPRPNSRPRP was tested, and the “shrunken log2 fold change” value was -0.105. With RRIRSRPPRLPRPRPRPNTAPRP the “shrunken log2 fold change” value was -0.0399. For RRIRSRPPRLPRPRPRPNVDPRP, the “shrunken log2 fold change” value was 0.0085. In the case of RRIRSRPPRLPRPRPRPNVKPRP, the “shrunken log2 fold change” value is reported as -0.332. With RRIRSRPPRLPRPRPRPNWCPRP the “shrunken log2 fold change” value was 0.0144. With RRIRSRPPRLPRPRPRPNWIPRP the “shrunken log2 fold change” value was -0.659. For RRIRSRPPRLPRPRPRPNYCPRP, the “shrunken log2 fold change” value was -0.352. RRIRSRPPRLPRPRPRPNYLPRP was tested, and the “shrunken log2 fold change” value was -0.071. In the case of RRIRSRPPRLPRPRPRPPAWPRP, the “shrunken log2 fold change” value is reported as 0.436. In the case of RRIRSRPPRLPRPRPRPPCKPRP, the “shrunken log2 fold change” value is reported as -0.163.
